In paper PMC13042608, “Cross‐Platform Biosensing of Immune Receptors Using Peptide‐Functionalized Graphene” (Advanced Science, 2025):
Non-standard residues stand in square brackets, D forms with d. No end group written: not given here.

Molecular target: T1, WKYMVm‐NH2
T1 construct: synthetic hexapeptide agonist of formyl peptide receptors; also called W‐peptide; target peptide; source: synthetic peptide (custom peptide synthesis, purity >95%)
T1 peptide: WKYMV[dM]-NH2
Assay: SPR; graphene-enhanced MP-SPR; peptide immobilised on PBA-graphene by amine coupling; nucleofected HEK293T cells (≈100 cells mL^-1) injected at 10 µL min^-1 for 20 min in C1 buffer pH 7.4; 22 °C
Details: one partner purified

SPR signal relative to the Control peptide (f-MEQQNK) surface: ~4 fold
B1: Formyl peptide receptor 2 (FPR2) on transfected HEK293T cells (receptor, human, UniProt P25090 1-351, looked up)
chain: METNFSTPLNEYEEVSYESAGYTVLRILPLVVLGVTFVLGVLGNGLVIWVAGFRMTRTVTTICYLNLALADFSFTATLPFLIVSMAMGEKWPFGWFLCKLIHIVVDINLFGSVFLIGFIALDRCICVLHPVWAQNHRTVSLAMKVIVGPWILALVLTLPVFLFLTTVTIPNGDTYCTFNFASWGGTPEERLKVAITMLTARGIIRFVIGFSLPMSIVAICYGLIAAKIHKKGMIKSSRPLRVLTAVVASFFICWFPFQLVALLGTVWLKEMLFYGKYKIIDILVNPTSSLAFFNSCLNPMLYVFVGQDFRERLIHSLPTSLERALSEDSAPTNDTAANSASPPAETELQAM
notes: formyl peptide receptor 2, human, gene amplified from human genomic DNA and cloned into pcDNA3.1(+); also called HEK FPR2; HEK‐FPR2; source: nucleofection with a GFP plasmid for biosensors), on living cells
